For orientation: Kd means the equilibrium constant for the complex coming apart.

The results in this text go back to article PMC12525094.

The target of data set [1] is Class 1 phytoglobin from Beta vulgaris (BvPgb 1.2), cysteine-to-alanine variant C86A (Beta vulgaris (sugar beet)). Nature of the data set: other fluorescence titration; isothermal spectral shift (SpS), Monolith X, dual emission ratio 670/650 nm; NHS-dye-labelled Pgb mixed with a sixteen-step dilution of GAPDH (highest 32 µM), equilibrated 15 min, in capillaries; PBS pH 7.4 with 0.05% Tween20; 25 °C.

In data set [2] the target is Class 1 phytoglobin from Beta vulgaris (BvPgb 1.2), recombinant wild type (Beta vulgaris (sugar beet)). The data set is described as above.
Data set [3] relates to BvPgb 1.2 C86A (Beta vulgaris). Nature of the data set: isothermal spectral shift (Monolith X). Particulars: PBS pH 7.4, 0.05% Tween20, 25 °C, 15 min equilibration, 16-step DNA dilution, top DNA stock 673 nM (i.e. 2.5 ng pET19b/µL; the two figures are …).
Data set [4] relates to BvPgb 1.2 rWT (class 1 phytoglobin) (Beta vulgaris). Nature of the data set: isothermal spectral shift (Monolith X). The following applies: PBS pH 7.4, 0.05% Tween20, 25 °C, 15 min equilibration, 16-step DNA dilution, top DNA stock 673 nM (i.e. 2.5 ng pET19b/µL; the two figures are …).
Where [5] appears, read: closed (hexacoordinate) phase of biphasic fit.
The mark [6] stands for this setting: open (pentacoordinate) phase of biphasic fit.

Regarding “Glyceraldehyde-3-phosphate dehydrogenase (GAPDH), human (from UniProt P04406 1-335) (enzyme)”, the results for the Kd in data set [1] and in data set [2] were 120 nM and 260 nM, respectively.
Take pET19b plasmid DNA: the Kd worked out at 0.23 nM in data set [3] (setting [5]), 50 nM in data set [3] (setting [6]), 0.1 nM in data set [4] (setting [5]) and 120 nM in data set [4] (setting [6]).
